Source: a protein production outcome set (Wang et al. 2014)

Experiment: label from the status in PepcDB records
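Further: failed if final PepcDB status was selected cloned or expressed and not failed if soluble or beyond.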

| Sequence | protein production |
| --- | --- |
| MSWYRRTKLVFDSLRRNINPKILPRSHVTSRINNPIGSSNPSAKFSSISSREVGLRSWTSLGRNTNRIAYNPFLSQPKRYYYVDRYQVRHFKPRGPGRWFQNPRTVFTVVLVGSVGLITLIVGNTETIPYTKRTHFILLSKPMEKLLGETQFEQIKKTYQGKILPATHPESIRVRLIAKEVIDALQRGLSNERVWSDLGYASTESSLGGGSDKGVKEMEMAMSGEDTMTDMKWSKEDQVLDDQWIQKSRKKDSKAHAATSHLEGISWEVLVVNEPIVNAFCLPAGKIVVFTGLLNHFKSDAEVATVIGHEVGHAVARHVAEGITKNLWFAILQLVLYQFVMPDLVNTMSALFLRLPFSRKMEIEADYIGLLLLASAGYDPRVAPTVYEKLGKLGGDALGDYLSTHPSGKKRSKLLAQANVMEEALMIYREVQAGRTGVEGFL | failed |
| MSYGLIIVLMIILGIGLWHTKKYHRAVVNQVAHVWITKNAFEHTALGMAIVSPDCRFLKVNRAYGEITGYTRPELLKMAVKELTHPEDQEKDTPYLQEVFAGNIHSFTTVKRYIHKNGSTIWVRSTISAVRTERGNLEHHHHHH | not failed |
| MSYGLIIVLMIILGIGLWHTKKYHRAVVNQVAHVWITKNAFEHTALGMAIVSPDCRFLKVNRAYGEITGYTRPELLKMAVKELTHPEDQEKDTPYLQEVFAGNIHSFTTVKRYIHKNGSTIWVRSTISAVRTERGNLKYFVLEHHHHHH | failed |
| MSYNNSYDVIILAGGLSKRFGADKCCFEVNSKTMLDRLLEQFDNPIVVSRSPRRIKKGILVIEKGEYEGPVKGVREGLKYVRRDRVFITGCDFPFLIKNLVDYVCSKPYDIVIPFDHRPQPLLACYSTELLNKNIDKINGLVELIELSSSVYFIGTEELLKIDPFLYSLININSIIDLIYRPIRIKTKSNFILRLEHHHHHH | failed |
| MTAANSERYALRLLGPFELTAPGGRRVEITSKKGIAVVAMLALSRDGARSRGWLQDRLWGSRRKAEAAGSLRRELSNLRKLLNADGAELLLSDRDRVRLRTDLIDIDLFVARSGRANGEFLEGLDISSERGFGEWLREQRDALVPPAQDVVVSAVTAGAGTLPTHIVDISTPPVGFAGRPAIAVLPFANATGDETLDYVAEGIGEELIVGLSRIRWLPVISRNSSFSFTESDDRKLIGQRLGAQYLVEGRLYRAYDSYGVSASLAEAITGYSLWSRRFTLQSPAAHDELVQFVNELVAQLESRIEHAEQIRIRGKRQDKLGVCDLIWRGRWHLNRLTRADSEMAQKLFAEALALDPDSPEALIQATAALAWSIWAGRQPQDQIQRMRKLSQQAMLADPDDGRGFMLAGIAEMWLRHPLEAKNLLRQAITLTPSLALAHAQLGGCFNLAGEPDRAIVQLKTAMRLSSNDPNIFYSLGELALAYTMLGQWPEAIEHATLALARRPAYWYAHVLKINALARIGQLDAARIACDELLAIKPNFSKRFLDWLPFVDRTWVDHFVQGLKMVPGRPSDWPERETHETAA | failed |
| MTADKISPDMLRFERILAAPAATVWQYLVDPELRARWFMSGPTDLQVGGAFGLTMDHDRLSDEVVPTPDRYKPYVGHRWHERITRYEPPHLLAFTWEDGKAGEVTFALTEIDSGTTRLVLTHTGLRGSEDALNFGGGWHAHLAVLEKRIAGISIPDFWALHAVAEREMEIALVSEA | failed |
| MTAENSATPDYRRNVGAVADALLAHPGPIVVLSHENPDGDALGSVLGLSRALRTLGKTVLAPMTVPHYLSFLPQPGELTAPLESWPQGALAAVLDVDNNDPVRVAGADLTQFDGPVVNVDHHGTNLRRADAGVVDPSKPAAAMMVADVIDALGAPWSEAVATPLMLGLNTDTGNFAFDSVSAETFECAARLRAHGARIGWLNDQMRQNPQSYYLLLREVLGKLEFLHGGRVVQTRVDEEMLARAGATWEQVENYVSMLRNAEGAQLAVMAKDYGDRVKFSLRSRGPVSAQNIAVALGGGGHVPAAGATVISSYAEARARLDAAIEAELARVDAQATAE | failed |
| MTAHKQPEANETESLLEQVQALESEVRGVVKTQLQLAGMETRRAGESFVRMVAFAVLAACLAFTAWAVLVTAAVIAIVNSSVMSLTTALVIVAVAHLAAAFYIVRYIKRRSRDLLFAETSSSL | failed |
| MTAHPPRPELQIDIVSDVVCPWCIVGFRQLDQALAATGVLARLRWHPFELNPQMGPEGQNLREHIMEKYGSTPEQSAEARARLTAIGAELGFTFNFTDDSRIVNTFAAHQLLDWAEGQGRQHPLKQALFAAYFTDGRDVSDLSVLLDAVEAAGLDREAAQTALTSGAHQAPVREKQKFWAQHGISGVPSMVFGGKYLLTGAQGADTYAQVIQRCLAEAA | not failed |
| MTALHDLPGTRLLALFARRELSPGEYYEHLLAHIQRWEPHLNALYRFDPQRVREQAAAATERWRKGQPKGPLDGLPVTIKELIATAGEPIPLGSAATALQPAPCDAPPAARLREAGAIVLAKTTVPDFGMLSSGLSSFHGVTRNPWNLANNTGGSSSGAAAAATAGYGPLHLGTDIGGSVRLPAGWCGLVGFKPSLGRIPIDPYYTGRCAGPMTRCMDDCLLLMRYLAQPDARDATSLPPEVLDWSAEPLSVRGLRVGLQLDPGCGLQPDAEIRAAIEAAARLFEEHGAQLRIVEPLMDRSLLDGLNDFWRARLWSELLLLDETRRARVLPYVHAWAEGGARVSGVDAVRGFNQTFEMRRRAARLFGEIDLLLTPTNQVEAFPADWASPLNDPQRPFEHIVFTVPWNMGEQPALSINCGFTAAGMPIGLQLVAPRFADTWLLRIGKTYEGWRGPIHGWP | failed |
| MTAMMTILGPVLMGAAFGFLLQRGKVTNCNVIENQFRLRDFTVLKVMGTAIVVGGIGVLLLVDTGNTKYYVKDANMLAIALGAALFGIGMVVYGYCPGTALGAIATGSIHALVGALGMVAGAILYALSFDWLKAHVLNVWALGKVRLPDVTNIPDIIWFAALAVGAGLFFWWIESVEAEQKRM | failed |
| MTAPEETAPVSVRKPSKPDLWKDSLGRTATRALQILLILTLTVVAVFGLLQIRLLVIPVLIALILAAAIGPFVNMLRRRGWRGGLATGVAFLGLLIVLGGVITVIVMSVRSQWDELISQAAAGLDELESFLLTGPFPIDREQLNQAREAVVEFAQSSQVRSGAVTGLSVVTEFLAGASLVVVILFFFLKDGAKIWEFFLRPFKGRREAKLRRVGKRTMEVLGGYVRGTAIVALVDTVAIGAALLIMQVPLAIPLAIIVFIGAFIPLVGATVAGILAALVALVANGPIVALIVIIVVIAVNQLEGDLLQPVVMGKSLELHALVILMALTAGTILAGIIGAVLAVPIAAVTWAIIQVWTAEDPDLEPMNPELPPANSQPT | failed |
| MTAPGSMPLTVIGGFLGAGKTTLLNYLLKVQHSERVLVMVNDFGSINIDAELLDQGRHDRPGVVRLQNGCVCCSIGGDLMQAFLQVMSMPDRPDRIIVEASGVADPTRIAQIGRVSGGLSDEGVITLVDASAVRTLAADKYVGDIVRQQILSADIVLLNKLDLSSDAEIVETRAWLRDLAPRTRVVSCIHGEVDAVSVLGIGAGKVAPDAAGGPVDVPVPDLRRASTRHADTFHSSTLATAHRFDRRRIEYALDALPQTVLRGKGFVELEGEATPALLQLCGSRWTLDPVSTPAPPAGTHLVFIATGGRGVPRFDAPSHFEQALASRDAASADTSNLEHHHHHH | not failed |
| MTAPKVFVSHASEDKARFVVDFARRLRENGVDAWLDQWEMKPGDSLVDKIFEEGLREARAVVIVLSATSVRKPWVREELNASVVNRISRGTKLIPVVIDDCDVPEALRSTVLEHHHHHH | failed |
| MTAPKVFVSHASEDKARFVVDFARRLRENGVDAWLDQWEMKPGDSLVDKIFEEGLREARAVVIVLSATSVRKPWVREELNASVVNRISRGTKLIPVVIDDCDVPEALRSTVWQKIDNLDDYGESLQRILSVIFDVTDKPALGAPPARFAGPAPLIAGLSRVDDLVIRVIARRQIDEGAGLVEWDRLKAEPILRDVPQQELLDSLEILKRHDFIRVREVIGALHVVLTDLGFLKFAEAYVDDYQGTVNQIAALLVNENVRQNRELAARVNKPVAFIDFVLNLMESNGYIKVSKYIGGQSHVREVSASLRRALQSA | failed |
| MTAPRYPRDMIGYGATPPNANWPGNARIAVQIVLNYEEGGENNILHGDAASEAFLSEIVGAAPWPGQRHWNMETIYEYGARAGFWRLHRLMRDLPVTVYGVATALARSPDQVAAMKSAGWEIASHGLKWVEHKDMPEEEERAQIAEAIRLHTEVTGSRPRGWYTGRCSMNTVRLASEAGIDYIADTYDDDLPYWKRIDGRDQLIVPYTLDCNDMRFATPQGFNSGDQFFAYLKDSFDALYAEGGEGAPKMLSIGLHCRLIGRPGRVMALKRFLDYARGHEDVWFATRLQIAEHWVREHPPVARTRPSEMPKADFVAAYGGIFEHSPWIAERAHGLELGPAHDTAGGLHNALCRMFRSASAEERLGVLTAHPDLAGKLAQAKRLTAESTSEQASAGLDALTDEERTTFTRLNTEYVARFGFPFIIAVRDHDKASILAAFQRRIGNDRETEFAEACRQVERIAEFRLRDVLPSLEHHHHHH | not failed |
| MTASDDAPISTDRFMFGRAQRWLHWSMALLIFAAIGLGIVAAYYPSGQQPRQGLLELHKSIGFTILALLVVRIVLRLISGEPPYRRPLGHLTEMAARAGHLALYGLMLLMPLSGYLFSGAGGYSLPWFGLFQWPRLVPRDHALSEWGQVLHDRGAWVLGAVLALHLAAVCWHQFVKRDEVLSRMTGRASES | failed |
| MTASDQFNSTHSAVDQYAELVLHNGRMYTLDPAQPWADAVAIRQGKLIAVGSLASLASLIGPNTRQHDLDGAFCMPGLHDMHTHPDLALAPRYADDLDVGIEDPTPEQLAAAIHAYADSHPGDGWIYGQYWVRYTFREAGLTPGREWLDSVMPHRPVALLDRMWGTMMVNSKALELAGIDRHTSDPRNGYLERDELTGEPNGLLIDGAYALIHAAMPPTPVSVLRRAYRDGVHFQTSRGVTATKYVHVCENRLQALKELDDAGELTLRVEAAISWQDDIFPVRRRWELLSGERHFYRSARLSANAVKFHFDGTVEPKSSYLLTPWPEESSWRGKLNLTPEHITDMVVDMDKRGLRVIAHCTGDGASDVFLDAVAEARRRNGNSGIRHQCAHSTLLHPGNLKRFQALDVIAEFSPAAWYPTPFASGARSGYGQERLKRIYDFKGVLAAGGIAVFGTDWPVASIDPWLALETMVTRQNPWNQEPDTFGDPISLEQALQVATLNGAHAMGLEHLTGSLEAGKSADLIVLDRDLFAQGARNYIHHTQVQLTFVEGQLVYDRQGTFSDTPLQAVWEGLPPVIEGKE | failed |
| MTAVETKKQYLTVFKEDGIAEIHLHINKSNSYDLEFYKEFNAAIDDIRFDPDIKVVIVMSDVPKFFSAGADINFLRSADPRFKTQFCLFCNETLDKIARSPQVYIACLEGHTVGGGLEMALACDLRFMGDEAGKIGLPEVSLGVLAGTGGTQRLARLIGYSRALDMNITGETITPQEALEIGLVNRVFPQAETRERTREYARKLANSATYAVSNIKLAIMNGKEMPLNVAIRYEGELQNLLFRSEDAKEGLSAFLEKRQPNWKGI | not failed |
| MTAVSLGPSPARRDALARRIRLLVTATIGYNVVEAVVAITAGTIASSTALIGFGLDSVIEVSSAAAVAWQFSARDPAVREAREKRTLRIIAFSFFALALYVTVDSVRALTGTGEAGHSVPGIVLAGLSLAIMPFLSAAQRKAGREIGSASAVADSKQTLLCTYLSAVLLVGLLVNLLLGWTWADPVAALVISAIAVKEGRDAWQGRGCCAAPTWATPQAGADTDNCDCCS | failed |
| MTCANCATDVIYMAERQNERDDRQKLKNISFAKKILLGLSMYVPSSTFKKIVLKLLGAHIGKNVYFGPGSLVLSNDYSSVYIENNVFVAPGVLINVNNFTVGENSHLGYQCLMVGESLKIGSRCNISNRTFIECSYSPILIEDDVTIGGCAMVSTHDGSYRQVYGLEMKAAPIYIRSKAFIGNNAIILPGIEIGRKVIVGAGAVVTKNAVANSVICGVPADKIRTMEVSNENITGN | failed |
